Measured values published in PMC3124363.
Values belong to the substance of their own block, whether it stands above or below them.

Columns and labels:
[1] = molecular target: Cdk2/cyclin A complex (full length human Cdk2 with truncated human cyclin A, residues 173–432) (human) (UniProt P24941); test: ITC
Cdk2 (Homo sapiens) = Cdk2 (Homo sapiens) (UniProt P24941); details: cited from earlier work
cyclin A (Homo sapiens) = cyclin A (Homo sapiens) (UniProt P20248); details: cited from earlier work
Sequence of cyclin A (Homo sapiens) (P20248 whole entry): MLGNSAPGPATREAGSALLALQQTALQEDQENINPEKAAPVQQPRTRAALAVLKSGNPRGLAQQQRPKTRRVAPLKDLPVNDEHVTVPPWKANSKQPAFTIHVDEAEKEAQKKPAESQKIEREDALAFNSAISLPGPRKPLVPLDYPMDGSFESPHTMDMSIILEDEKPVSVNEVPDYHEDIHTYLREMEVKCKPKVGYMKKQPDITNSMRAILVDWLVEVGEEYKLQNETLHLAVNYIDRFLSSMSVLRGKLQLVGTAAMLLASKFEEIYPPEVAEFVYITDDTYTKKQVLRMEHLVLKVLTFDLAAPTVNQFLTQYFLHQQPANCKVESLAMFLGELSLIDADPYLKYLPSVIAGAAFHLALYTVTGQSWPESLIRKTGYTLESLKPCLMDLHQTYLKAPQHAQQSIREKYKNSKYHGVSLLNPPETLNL

Kd [1]: 61 nM
Substance: sub-domain D1 of p21 (domain or fragment)

Substance: p27 D2 (from UniProt P46527)
Kd (Cdk2 (Homo sapiens)): 70 nM

Substance: p27 D1 (from UniProt P46527)
Kd (cyclin A (Homo sapiens)): 25 nM
